Laboratory results: the supplement of paper PMC10724198
± gives the standard deviation of the averaged measurements.

How the values were obtained:
Saccharomyces cerevisiae [1] = experiment: protein stability index of tFT-peptide fusion (C-terminal peptide) (PSI (0-1 scale)); higher = more stable (slower turnover); conditions: genetic background: wild type; temperature: 30 C
Saccharomyces cerevisiae [2] = experiment: as above
Description: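 MPS profiling in S. cerevisiae of the tFT-X12 degron library: putative degron peptides plus stable controls, 12 aa, fused to the C-terminus of a sfGFP-mCherry timer. Cells are FACS-sorted into 8 mCherry/sfGFP bins and deep-sequenced. PSI runs from 0 (unstable) to 1 (stable). Backgrounds are wild type, das1Δ and doa10Δ at 30 °C, and wild type, das1Δ, cdc34-1 and cdc53-1 at 37 °C; 2-3 technical replicates each.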

[3] = genetic background: cdc34-1, temperature: 37 C
[4] = genetic background: cdc53-1, temperature: 37 C
[5] = genetic background: das1 deletion, temperature: 30 C
[6] = genetic background: das1 deletion, temperature: 37 C
[7] = genetic background: doa10 deletion, temperature: 30 C
[8] = genetic background: wild type, temperature: 30 C
[9] = genetic background: wild type, temperature: 37 C
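Note: PSI is a weighted mean of sequencing reads over stability bins, variants kept only with over 10 reads, mCherry proximal and sfGFP distal, peptide attached via GGGS linker.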

Sequence | protein stability index (Saccharomyces cerevisiae [1]) | protein stability index (Saccharomyces cerevisiae [2]; [3]) | protein stability index (Saccharomyces cerevisiae [2]; [4]) | protein stability index (Saccharomyces cerevisiae [2]; [5]) | protein stability index (Saccharomyces cerevisiae [2]; [6]) | protein stability index (Saccharomyces cerevisiae [2]; [7]) | protein stability index (Saccharomyces cerevisiae [2]; [8]) | protein stability index (Saccharomyces cerevisiae [2]; [9])
IKSLLGCWHKHY | 0.479 ± 0.018 | 0.679 ± 0.017 | 0.732 ± 0.0077 | 0.647 ± 0.031 | 0.7145 ± 0.0066 | 0.279 ± 0.028 | 0.303 ± 0.057 | 0.574 ± 0.04
ILCVEFFVSVSV | 0.218 ± 0.0027 | 0.0684 ± 0.008 | 0.2486 ± 0.0024 | 0.163 ± 0.025 | 0.277 ± 0.0064 | 0.136 ± 0.01 | 0.16 ± 0.0059 | 0.23 ± 0.021
ILFVCVCVLHVG | 0.242 ± 0.025 | 0.112 ± 0.0052 | 0.198 ± 0.012 | 0.17 ± 0.027 | 0.307 ± 0.0048 | 0.121 ± 0.013 | 0.141 ± 0.019 | 0.252 ± 0.021
INKRDARIHLLM | 0.47 ± 0.0047 | 0.658 ± 0.012 | 0.6975 ± 0.0064 | 0.623 ± 0.023 | 0.701 ± 0.00084 | 0.32 ± 0.034 | 0.382 ± 0.029 | 0.547 ± 0.0084
IPHLNCCCCLVR | 0.442 ± 0.052 | 0.527 ± 0.013 | 0.497 ± 0.023 | 0.334 ± 0.035 | 0.5878 ± 0.0048 | 0.272 ± 0.0053 | 0.328 ± 0.02 | 0.5503 ± 0.0019
IRDGPWKRVLVV | 0.348 ± 0.051 | 0.599 ± 0.031 | 0.596 ± 0.01 | 0.48 ± 0.028 | 0.642 ± 0.0055 | 0.125 ± 0.0086 | 0.157 ± 0.015 | 0.245 ± 0.0076
IRVLACFLFAVS | 0.17 ± 0.01 | 0.202 ± 0.016 | 0.305 ± 0.017 | 0.172 ± 0.0094 | 0.32 ± 0.0072 | 0.095 ± 0.0081 | 0.12 ± 0.022 | 0.247 ± 0.025
IVFGWGVEWGRL | 0.69 ± 0.28 | 0.757 ± 0.038 | 0.803 ± 0.027 | 0.692 ± 0.014 | 0.7973 ± 0.0035 | 0.691 ± 0.038 | 0.701 ± 0.021 | 0.783 ± 0.017
IVLCVFTVDSDF | 0.407 ± 0.0073 | 0.36 ± 0.0079 | 0.478 ± 0.058 | 0.314 ± 0.024 | 0.5441 ± 0.0044 | 0.266 ± 0.006 | 0.291 ± 0.021 | 0.5126 ± 0.0039
IVSFRLDLSLAV | 0.534 ± 0.051 | 0.532 ± 0.069 | 0.5949 ± 0.0024 | 0.452 ± 0.023 | 0.55891 ± 0.00017 | 0.448 ± 0.014 | 0.458 ± 0.02 | 0.5467 ± 0.0024
IVWVSSFVCRSV | 0.43 ± 0.044 | 0.508 ± 0.082 | 0.574 ± 0.02 | 0.436 ± 0.0072 | 0.524 ± 0.0075 | 0.447 ± 0.015 | 0.4257 ± 0.003 | 0.516 ± 0.025
IWVVIISDSRVG | 0.352 ± 0.0071 | 0.33375 ± 0.00011 |  | 0.283 ± 0.059 | 0.488 ± 0.02 | 0.247 ± 0.019 | 0.342 ± 0.094 | 0.4636 ± 0.0027
IWVWMLSVWLGG | 0.349 ± 0.013 | 0.303 ± 0.016 | 0.3731 ± 0.002 | 0.291 ± 0.021 | 0.409 ± 0.022 | 0.273 ± 0.021 | 0.288 ± 0.017 | 0.407 ± 0.018
IYFFVLRLRLCG | 0.233 ± 0.1 | 0.278 ± 0.004 | 0.291 ± 0.021 | 0.235 ± 0.029 | 0.428 ± 0.0065 | 0.16 ± 0.0036 | 0.162 ± 0.015 | 0.253 ± 0.0032
KIHILVVQIATR | 0.0736 ± 0.038 | 0.0402 ± 0.0097 | 0.134 ± 0.0054 | 0.0541 ± 0.0098 | 0.1391 ± 0.00019 | 0.0346 ± 0.0032 | 0.0319 ± 0.013 | 0.114 ± 0.0046
KKNITRLKNKMT | 0.416 ± 0.14 | 0.535 ± 0.032 | 0.676 ± 0.033 | 0.678 ± 0.031 | 0.691 ± 0.059 | 0.212 ± 0.045 | 0.199 ± 0.093 | 0.392 ± 0.086
KLLISLTWFCVL | 0.284 ± 0.092 | 0.395 ± 0.036 | 0.476 ± 0.014 | 0.373 ± 0.029 | 0.527 ± 0.019 | 0.165 ± 0.0032 | 0.192 ± 0.028 | 0.3344 ± 0.00067
KLRMGRYIVRII | 0.259 ± 0.0076 | 0.6637 ± 0.0034 | 0.661 ± 0.041 | 0.569 ± 0.022 | 0.6655 ± 0.0023 | 0.152 ± 0.024 | 0.135 ± 0.019 | 0.242 ± 0.012
KVFWRPAWVAEV | 0.371 ± 0.026 | 0.6563 ± 0.0016 | 0.7475 ± 0.0067 | 0.631 ± 0.016 | 0.733 ± 0.0084 | 0.237 ± 0.011 | 0.28 ± 0.034 | 0.512 ± 0.013
LAVFSSPELSFP | 0.756 ± 0.024 | 0.727 ± 0.012 | 0.788 ± 0.015 | 0.6631 ± 0.0019 | 0.761 ± 0.013 | 0.66 ± 0.034 | 0.676 ± 0.0088 | 0.777 ± 0.0036

Sequence | protein stability index (Saccharomyces cerevisiae [1]) | protein stability index (Saccharomyces cerevisiae [2]; [3]) | protein stability index (Saccharomyces cerevisiae [2]; [4]) | protein stability index (Saccharomyces cerevisiae [2]; [5]) | protein stability index (Saccharomyces cerevisiae [2]; [6]) | protein stability index (Saccharomyces cerevisiae [2]; [7]) | protein stability index (Saccharomyces cerevisiae [2]; [8]) | protein stability index (Saccharomyces cerevisiae [2]; [9])
LCFTSVFTLFIC | 0.101 ± 0.024 | 0.288 ± 0.028 | 0.469 ± 0.026 | 0.382 ± 0.026 | 0.511 ± 0.006 | 0.0848 ± 0.017 | 0.0664 ± 0.0089 | 0.0756 ± 0.015
LCLLPVCLWDVG | 0.461 ± 0.023 | 0.451 ± 0.026 | 0.513 ± 0.016 | 0.447 ± 0.0076 | 0.501 ± 0.0082 | 0.453 ± 0.0074 | 0.439 ± 0.017 | 0.49 ± 0.0072
LCSCAVVICCSL | 0.377 ± 0.04 | 0.445 ± 0.0054 | 0.4359 ± 0.0021 | 0.299 ± 0.031 | 0.4631 ± 0.0044 | 0.274 ± 0.0047 | 0.309 ± 0.0072 | 0.441 ± 0.019
LCSVWVGIVLLC | 0.165 ± 0.047 | 0.156 ± 0.011 | 0.236 ± 0.045 | 0.23 ± 0.02 | 0.313 ± 0.014 | 0.0996 ± 0.0034 | 0.0964 ± 0.013 | 0.107 ± 0.019
LDLSSLRCRYLL | 0.343 ± 0.099 | 0.639 ± 0.058 | 0.725 ± 0.034 | 0.657 ± 0.021 | 0.765 ± 0.021 | 0.185 ± 0.011 | 0.214 ± 0.014 | 0.427 ± 0.0081
LDTTSRSRAKIS | 0.164 ± 0.032 | 0.509 ± 0.031 | 0.6775 ± 0.0026 | 0.625 ± 0.022 | 0.718 ± 0.013 | 0.0782 ± 0.032 | 0.0968 ± 0.048 | 0.138 ± 0.021
LFFGLCFVFFGF | 0.378 ± 0.046 | 0.384 ± 0.022 | 0.459 ± 0.0067 | 0.362 ± 0.032 | 0.48 ± 0.0058 | 0.407 ± 0.015 | 0.366 ± 0.013 | 0.4582 ± 0.0013
LFFLSASFFFFF | 0.289 ± 0.0064 | 0.458 ± 0.011 | 0.554 ± 0.0066 | 0.449 ± 0.034 | 0.547 ± 0.0075 | 0.222 ± 0.0092 | 0.207 ± 0.033 | 0.356 ± 0.067
LFFSPRRLSPPT | 0.748 ± 0.011 | 0.705 ± 0.024 | 0.7533 ± 0.0049 | 0.695 ± 0.03 | 0.778 ± 0.022 | 0.688 ± 0.019 | 0.695 ± 0.015 | 0.746 ± 0.022
LFIVTFIPVLFS | 0.494 ± 0.0074 | 0.49 ± 0.064 | 0.545 ± 0.034 | 0.374 ± 0.016 | 0.623 ± 0.0088 | 0.41 ± 0.0081 | 0.384 ± 0.041 | 0.59 ± 0.08
LFMLHFLAVLRY | 0.308 ± 0.099 | 0.124 ± 0.054 | 0.1407 ± 0.00041 | 0.272 ± 0.037 | 0.3358 ± 0.003 | 0.337 ± 0.017 | 0.242 ± 0.027 | 0.311 ± 0.011
LFSFVCLVFFLW | 0.38 ± 0.07 | 0.312 ± 0.017 | 0.375 ± 0.006 | 0.291 ± 0.03 | 0.441 ± 0.0094 | 0.306 ± 0.032 | 0.27 ± 0.026 | 0.4178 ± 0.00065
LFSPLKGILSVM | 0.448 ± 0.018 | 0.589 ± 0.0073 | 0.664 ± 0.011 | 0.51 ± 0.032 | 0.691 ± 0.0074 | 0.2641 ± 0.00021 | 0.316 ± 0.027 | 0.5081 ± 0.0023
LFTTYVFLVFFQ | 0.372 ± 0.012 | 0.345 ± 0.011 | 0.474 ± 0.0096 | 0.337 ± 0.027 | 0.511 ± 0.0082 | 0.2692 ± 0.0019 | 0.29 ± 0.018 | 0.4367 ± 0.0009
LFVFTYPFLSWL | 0.478 ± 0.0061 | 0.617 ± 0.011 | 0.66 ± 0.011 | 0.591 ± 0.042 | 0.6963 ± 0.0031 | 0.552 ± 0.028 | 0.514 ± 0.016 | 0.615 ± 0.0094
LFVMVSVSGLVV | 0.261 ± 0.017 | 0.0501 ± 0.016 | 0.0999 ± 0.071 | 0.159 ± 0.031 | 0.255 ± 0.0059 | 0.145 ± 0.0021 | 0.16 ± 0.026 | 0.235 ± 0.0073
LFVVHCFLSVSS | 0.109 ± 0.039 | 0.0267 ± 0.0027 | 0.0524 ± 0.033 | 0.0648 ± 0.021 | 0.165 ± 0.0062 | 0.0415 ± 0.0025 | 0.0374 ± 0.017 | 0.133 ± 0.029
LFWFRGTIVTPR | 0.693 ± 0.034 | 0.693 ± 0.027 | 0.726 ± 0.017 | 0.638 ± 0.015 | 0.7371 ± 0.0069 | 0.635 ± 0.019 | 0.6335 ± 0.0044 | 0.705 ± 0.018
LGCFGSSFVFCC | 0.23 ± 0.016 | 0.565 ± 0.015 | 0.668 ± 0.02 | 0.553 ± 0.029 | 0.685 ± 0.015 | 0.138 ± 0.0034 | 0.155 ± 0.017 | 0.355 ± 0.0038
